Measurements: patent publication US20220235344A1, “TRYPSIN VARIANTS WITH IMPROVED ENZYMATIC PROPERTIES” (BIOPHARMA TRANSLATIONSINSTITUT DESSAU FORSCHUNGS GMBH, priority 2018, published 2022)

Tests used:
Assay type in all cases: biochemical
[1] = system: R1-YRKK-R2 (Bz-PGGYRKKAG-OH) / H-RKKAK(DNP)-OH; assay: Zinc dependence of the transamidation reaction, A2C8 and K7F11, YRKK; conditions: 100 μM acyl donor, 200 μM acyl acceptor
Protocol: Model transamidation reactions were performed in a solution containing 15 to 250 μM acyl donor, 2 eq. of the corresponding acyl acceptor, varying concentrations of trypsin variant, 100 mM HEPES/NaOH pH 7.8, ±0.1 mM ZnC12, 100 mM NaCl, 10 mM CaCl2) at 30° C. Acyl donor and acyl acceptor had the same amino acids in P1′-P3′ position, e.g. Bz-[…]+H-RAHAK-OH or Bz-[…]+H-RKKAK-OH. Variations are indicated. The acyl acceptor could be equipped with a 2,4-Dinitrophenyl group (DNP) at the side chain of the terminal lysine, e.g. H-RAHAK(DNP)-OH or H-RKKAK(DNP)-OH. The reactions were started by the addition of enzyme. To record the time course of product formation and/or for kinetic evaluation of the reaction several aliquots of the reaction mixture were quenched with 25% (v/v) acetic acid at distinct time points within up to 4 hours. The composition of the reaction mixture was analyzed by UPCL with method I or II, depending on the absence (method 1) or presence (method II) of a 2,4-dinitrophenyl group within the acyl acceptor (see example 1). Measurements were performed as duplicates and errors were less than 5%.

[2] = system: Bz-PGGXaaXaaXaaXaaAG-OH (acyl donor) / H-XaaXaaXaaAK(DNP)-OH (acyl acceptor); assay: Substrate specificity of variants (FIG. 2, FIG. 4)
Protocol: FIG. 2: Substrate specificity data of chosen variants identified during phage-display selection and screening out of Trypsiligase II-library. 100 μM acyl donor (Bz-PGGXaaXaaXaaXaaAG-OH); 200 μM acyl acceptor (H-XaaXaaXaaAK(DNP)-OH); 1-5 μM enzyme variant; 100 mM HEPES pH7.8, 100 mM NaCl, 10 mM CaCl2, 0.1 mM ZnCl2, T=30° C. UPLC analysis: Waters Acquity Ultra Performance LC, C18-column, gradient 5-60% acetonitrile, 5 min, detection at 360 nm; (k_(cat,AL)^app): apparent turnover rate for the aminolysis reaction. Amino acid variation of acyl donor/acyl acceptor pairs at Xaa-positions are indicated at the y-axis, e.g. YRAH relates to the acyl donor Bz-[…]-OH with the corresponding acyl acceptor H-RAHAK(DNP)-OH.
FIG. 4: Substrate specificity data of chosen variants identified during phage-display selection and screening out of Trypsiligase II-library. […]
Model transamidation reactions were performed in a solution containing 15 to 250 μM acyl donor, 2 eq. of the corresponding acyl acceptor, varying concentrations of trypsin variant, 100 mM HEPES/NaOH pH 7.8, ±0.1 mM ZnC12, 100 mM NaCl, 10 mM CaCl2) at 30° C. […] The composition of the reaction mixture was analyzed by UPCL with method I or II, depending on the absence (method 1) or presence (method II) of a 2,4-dinitrophenyl group within the acyl acceptor (see example 1). […]

[3] = system: Bz PGGXaaXaaXaaHAG-OH / H-XaaXaaXaaAK(DNP)-OH (recognition sequences YRRH, YMKH, RMKH); assay: Time course of transamidation by A2C8_H39Y/H59Y/E60K/K189D and wild-type trypsin (FIG. 5); conditions: comparison value for A2C8
Protocol: FIG. 5: Time course of the product formation for a transamidation reaction catalyzed by the variant A2C8_H39Y/H59Y/E60K/K189D as well as the wild-type Trypsin in correlation to various peptide substrates. Reaction conditions: 100 μM acyl donor (Bz PGGXaaXaaXaaHAG-OH), 200 μM acyl acceptor (H-XaaXaaXaaAK(DNP)-OH), 10 μM trypsin variant A2C8_H39Y/H59Y/E60K/K189D or 2.5 nM anionic rat trypsin II, 100 mM HEPES/NaOH pH 7.8, 0.1 mM ZnCl2, 100 mM NaCl, 10 mM CaCl2, T=30° C. UPLC analysis: Waters Acquity Ultra Performance LC, C18-column, gradient 5-60% acetonitrile, 5 min, detection at 360 nm.
The three substrates with the highest apparent turnover rate for the aminolysis reaction were then used for investigating the synthesis behavior of variant A2C8_H39Y/H59Y/E60K/K189D. In FIG. 5 the time course of product formation for a transamidation reaction catalyzed by variant A2C8_H39Y/H59Y/E60K/K189D with various peptide substrates is illustrated.

B1: A2C8: Trypsiligase II + H40F, A55A, R96E, K97D, L99F, N143E, E151Y, S190V, Q192A, S214G, G219Q, A221T (protein)
chain: IVGGYTCQENSVPYQVSLNSGHFFCGGSLINDQWVVSAAHCHESRIQVRLGEHNINVLEGNEQFVNAAKIIKHPNFDEDTFNNDIMLIKLSSPVKLNARVATVALPSSCAPAGTQCLISGWGETLSSGVNYPDLLQCLDAPLLPQADCEASYPGKITDNMVCVGFLEGGKKVCAGDSGGPVVCNGELQGIVGWGYQCTLPDNPGVYTKVCNYVDWIQDTIAAN
- kcat, AL^app + Zn^2+ (mkat/mol) ([1]; 0.1 mM ZnCl2): 18.04 mkat/mol
- product yield + Zn^2+ (%) ([1]; 0.1 mM ZnCl2): 59.0%
- kcat, AL^app − Zn^2+ (mkat/mol) ([1]; absence of zinc ions): 17.7 mkat/mol
- product yield − Zn^2+ (%) ([1]; absence of zinc ions): 59.7%
- acceptance of LRKH as acyl donor [2]: accepts LRKH as acyl donor
- substrate sequence with highest activity [2]: highest activity for YRKK substrate sequence
- product yield at comparable conditions [3]: 59%
